A word on the Kd: it is a measure of binding affinity in units of concentration. Read a high Kd as a looser complex.

Common to all, as to experiment: MST
For one series, the target named is T1, RMB1 MBD (Arabidopsis thaliana, UniProt F4I209 1-81).
T1 sequence: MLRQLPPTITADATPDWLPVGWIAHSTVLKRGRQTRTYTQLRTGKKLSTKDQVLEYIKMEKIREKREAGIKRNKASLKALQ

In the next series the target is T2, RMB1 MBD W22G (Arabidopsis thaliana, UniProt F4I209 1-81, W22G).
T2 sequence: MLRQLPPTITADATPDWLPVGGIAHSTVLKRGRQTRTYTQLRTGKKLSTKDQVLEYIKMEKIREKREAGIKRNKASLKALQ

A further series addresses T3, RMB1 MBD K50T (Arabidopsis thaliana, UniProt F4I209 1-81, K50T).
T3 sequence: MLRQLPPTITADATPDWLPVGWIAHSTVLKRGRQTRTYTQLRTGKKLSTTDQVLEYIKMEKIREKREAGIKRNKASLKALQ

The target in another series is T4, RMB1 MBD T49A (Arabidopsis thaliana, UniProt F4I209 1-81, T49A).
T4 sequence: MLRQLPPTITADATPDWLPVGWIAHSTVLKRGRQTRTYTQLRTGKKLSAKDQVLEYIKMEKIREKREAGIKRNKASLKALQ

A further series addresses T5, RMB1 MBD Y38F (Arabidopsis thaliana, UniProt F4I209 1-81, Y38F).
T5 sequence: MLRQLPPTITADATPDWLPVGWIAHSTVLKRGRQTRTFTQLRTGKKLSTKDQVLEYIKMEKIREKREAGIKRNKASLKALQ

B1: AT5G39160 mCG (dsDNA)
DNA 1: TTTGGTACGGACTTTTAGTTACAAGAGAGCATTTAAACAAAAATGACCGGTAGATGGAA
DNA 2: TTCCATCTACCGGTCATTTTTGTTTAAATGCTCTCTTGTAACTAAAAGTCCGTACCAAA
modifications: 5mC at forward 8 and 48; reverse strand line not in material, its methylation unknown
Take B1: the Kd worked out at 1.77 ± 0.7 µM in the series with RMB1 MBD, 13.3 ± 4.67 µM in the series with RMB1 MBD W22G, 3.58 ± 2.07 µM in the series with RMB1 MBD T49A and 2.15 ± 0.75 µM in the series with RMB1 MBD Y38F. Besides, in the series with RMB1 MBD K50T, the binding result is given as “no binding”.

B2: AT5G39160 mCHG (dsDNA)
DNA 1: TTTGGTACGGACTTTTAGTTACAAGAGAGCATTTAAACAAAAATGACCGGTAGATGGAA
DNA 2: TTCCATCTACCGGTCATTTTTGTTTAAATGCTCTCTTGTAACTAAAAGTCCGTACCAAA
modifications: 5mC in CHG context; positions not in material (base sequence taken from Um probe)
As for B2, the Kd in the series with RMB1 MBD worked out at 3.34 ± 0.27 µM; with RMB1 MBD T49A, 4.11 ± 2.92 µM; in the series with RMB1 MBD Y38F, 5.16 ± 2 µM. Further, in the series with RMB1 MBD K50T, the binding result was “no binding”.

B3: AT5G39160 mCHH (dsDNA)
DNA 1: TTTGGTACGGACTTTTAGTTACAAGAGAGCATTTAAACAAAAATGACCGGTAGATGGAA
DNA 2: TTCCATCTACCGGTCATTTTTGTTTAAATGCTCTCTTGTAACTAAAAGTCCGTACCAAA
modifications: 5mC at forward 12, 22, 30, 38; reverse unmethylated
B3 returned a Kd with RMB1 MBD of 2.86 ± 1.21 µM.

Source of the values: doi:10.1101/2020.02.21.958371.
